In patent US20220112288A1 (published 2022):
Changes are numbered by the printed parent chain.

Biological target: T1, Recombinant human CD4 (R&D Systems, Cat. 10327-CD) (human, UniProt P01730 26-390, limits assumed)
T1 construct: Bought protein; also called huCD4
Assay: BLI (Octet Red384), purified antibody on anti-mouse Fc sensors, human CD4 100/50/25 nM, global 1:1 fit;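 note: antibodies loaded at 10 µg/mL, curves fitted across association and dissociation phases, with an unrelated mouse-derived antibody serving as internal reference control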
Protocol: A three-point, 1:1 serial dilution of human and rhesus CD4 proteins were prepared using kinetics buffer as diluent. […] 10 mM Glycine pH 1.7, and kinetics buffer were used to regenerate the AMC biosensors. […] An irrelevant antibody derived from the Alivamab mouse was included in the assay as an internal reference control.
After completion of the kinetic characterization assays, data was analyzed in Forte Bio analysis software v11. The Y-axis was aligned to the final 5 seconds of the baseline step, with inter-step alignment to the dissociation step. Savitzky-Golay Filtering was used to smooth the data. Kinetic curves were fit to both association and dissociation steps using a 1:1 stoichiometry model.

B1: 75110_08M20A (antibody, V domains shown)
VH: QVQLQESDPGLVKPSETLSLTCTVSGGSISSYYWSWIRQPAGKGLEWIGRIYASGSTNYNPSLKSRVTMSVDTSKNQFSLKLSSVTAADTAVYYCARDREGYYYYGMDVWGQGTTVTVSS
VL: DIQMTQSPSSLSASVGDRVTITCQASQDISKYLNWYQQKPGKAPNLLIYAASNLETGVPSRFSGSGSGTDFTFTISSLQPEDIAAYYCQQYDSLPITFGQGTRLEIK
notes: Tested as antibody purified from AlivaMab Mouse Kappa hybridoma (human V regions, kappa light chain, mouse Fc captured by anti-mouse Fc sensors)
Kd: 9.2 nM
Response: 0.16
koff: 0.00091 s⁻¹
kon: 99000 M⁻¹ s⁻¹

B2: 75110_06G04A (antibody, V domains shown)
VH: B1 VH with Q5L, D8G, A53I, V71I, K75E, K81N, D98E, R99L, G101R, Y102P
VL: DIQMTQSPSSLSASVGDRVTITCQASQDISNYLNWYQQKPGKAPKLLIYNASTLETGVPSRFSGSGSGTDFTFTISSLQPEDIATYYCQQYDNLPLTFGGGTKVEFK
notes: as for B1
Kd: 6 nM
Response: 0.07
koff: 0.0015 s⁻¹
kon: 250000 M⁻¹ s⁻¹

B3: 75110_06K03A (antibody, V domains shown)
VH: B1 VH with D8G, S31T, Y52N, A53T, N58T, D98E, R99L, G101R
VL: B2 VL with N50Y, T53I, N93S, F106I
notes: as for B1
Kd: 2.2 nM
Response: 0.11
koff: 3.6e-05 s⁻¹
kon: 16000 M⁻¹ s⁻¹

B4: 75110_07B16A (antibody, V domains shown)
VH: QVQLQQWGAGLLKPSETLSLTCAVYGGSFSGYYWSWIRQSPGKGLEWIGEINQSGSTNYNPSLKSRVTISVDTSKDQFSLKLSSVTAADTAVYYCARVINWFDSWGQGSLVTVSS
VL: DIQMTQSPSSVSASVGDRVTITCRASQGISSWLAWYQQKPGKAPKLLIYDASSFQSGVPSRFSGSGSGTDFTLTISSLQTDDFATYYCQQANSFPYTFGQGTKLEIK
notes: as for B1
Kd: 3 nM
Response: 0.24
koff: 0.00043 s⁻¹
kon: 140000 M⁻¹ s⁻¹

B5: 75110_11D03A (antibody, V domains shown)
VH: EVQLVESGGGLVQPGGSLRLSCAASGFTFSSYWMSWVRQAPGKGLEWVANINQDGNEKYYVDSVKGRFTISRDNAKNSLFLQMNSLRAEDTAVYYCAREGGQWLALDYWGQGALVTVSS
VL: B4 VL with L46F, Y49S, D50G, F54L, T80P, D81E, Y96W, L104V
notes: as for B1
Kd: 3.2 nM
Response: 0.09
koff: 0.0013 s⁻¹
kon: 420000 M⁻¹ s⁻¹

B6: 75110_07H07A (antibody, V domains shown)
VH: B5 VH with L4V, N52K, Q53E, D54E, N56S, F80Y, A97V, A113T
VL: B4 VL with A13G, Y49F, D50G, F54L, T80P, D81E, Y96W, L104V, E105Q
notes: as for B1
Kd: 9.4 nM
Response: 0.16
koff: 0.0012 s⁻¹
kon: 130000 M⁻¹ s⁻¹

B7: 75110_09G15A (antibody, V domains shown)
VH: B5 VH with S31D, N56S, Y60S, F80Y, V93I, Y94F, A113T
VL: B4 VL with D50G, F54L, S76N, T80P, D81E, A84T, S93I, Y96W, L104V
notes: as for B1
Kd: 48 nM
Response: 0.21
koff: 0.004 s⁻¹
kon: 85000 M⁻¹ s⁻¹

B8: 75110_09N20A (antibody, V domains shown)
VH: B5 VH with Q53E, N56S, F80Y, A97V, A113T
VL: B4 VL with D50A, F54L, R61S, S76N, T80P, D81E, Y96W, L104V, E105A
notes: as for B1
Kd: 53 nM
Response: 0.09
koff: 0.0045 s⁻¹
kon: 86000 M⁻¹ s⁻¹

B9: 75110_12C19A (antibody, V domains shown)
VH: B5 VH with N52K, Q53E, N56S, E57D, F80Y, Y94H, A97V, A113T
VL: B4 VL with A13G, D50G, F54L, T80P, D81E, A84V, Y96W, L104V
notes: as for B1
Kd: 5 nM
Response: 0.08
koff: 0.0015 s⁻¹
kon: 290000 M⁻¹ s⁻¹

B10: 75110_12H17A (antibody, V domains shown)
VH: B5 VH with S31D, N52K, Q53E
VL: B4 VL with L46F, Y49S, D50G, F54L, S63T, T80P, D81E, Y96W, L104V
notes: as for B1
Kd: 26 nM
Response: 0.19
koff: 0.0033 s⁻¹
kon: 120000 M⁻¹ s⁻¹

B11: 75110_12H19A (antibody, V domains shown)
VH: B5 VH with K43Q, Q53E, Y60H, F68L, F80Y, A88G, E89V, Y95F
VL: B4 VL with T20S, D50G, S53G, F54L, T80P, D81E, Y96W, L104V
notes: as for B1
Kd: 13 nM
Response: 0.25
koff: 0.0022 s⁻¹
kon: 170000 M⁻¹ s⁻¹

B12: 75110_07J02A (antibody, V domains shown)
VH: EVQLVESGGGLVQPGGSLRLSCAASGFTFSSYWMSWVRQAPGKGLEWVANIKEDGSEKYYVDSVKGRFTISRDNAKNSLYLQMNSLRAEDTAVYYCARDGSYSGYGMDVWGQGTTVTVSS
VL: AIQMTQSPSSLSASVGDRVTITCRASQGIRNDLGWYQQKPGKAPKLLIYAASSLQSGVPSRFSGRGSGTDFALTISSLQPEDFATYYCLLDYNYPYTFGQGTRLEIK
notes: Tested as antibody purified from AlivaMab Mouse Kappa hybridoma (human V regions, kappa light chain, mouse Fc captured by anti-mouse Fc sensors); also called 75110_07102A
Kd: 14 nM
Response: 0.1
koff: 0.0022 s⁻¹
kon: 160000 M⁻¹ s⁻¹

B13: 75110_07J24A (antibody, V domains shown)
VH: QAQLQESGPGLVKPSETLSLTCTVSGGSISSYYYNWIRQPAGKGLEWIGRIYTSGRTDYNPSLKSRVTMSADTSKNQFSLKLSSVTAADTAVYYCARDEGPTDAFDIWGQGTMVTVSS
VL: DIVMTQTPLSLPVTPGEPASISCRSSQSLLDSDDGNTYLDWYLQKPGQSPHLLIYTLSYRASGVPDRFSGSGSGSDFTLKISRVEAEDVGVYYCMQRIEFPFTFGPGTKVDIK
notes: Tested as antibody purified from AlivaMab Mouse Kappa hybridoma (human V regions, kappa light chain, mouse Fc captured by anti-mouse Fc sensors); also called 75110_07124A
Kd: 7.1 nM
Response: 0.19
koff: 0.0006 s⁻¹
kon: 85000 M⁻¹ s⁻¹

B14: 75110_07N04A (antibody, V domains shown)
VH: QVQLQESGPGLVKPSETLSLTCSVSGVSSTSFYWSWIRQPAGKGLDWIGRIYTSGSTNYNPSLKSRVTMSVDTSKNQFSLKLSSVTAADTAVYYCARDPGYSDAFAIWGQGTMVTVSS
VL: not shown
notes: as for B1
Kd: < 0.001 nM
Response: 0.2
koff: < 1e-07 s⁻¹
kon: 84000 M⁻¹ s⁻¹

B15: 75110_08A13A (antibody, V domains shown)
VH: B12 VH with T28I, E53Q, V61M, G100N, S103Y, G104Y
VL: B12 VL with N31D, Y49F, R61S, R65S, A72T, L90H, D91H, R103K
notes: as for B1
Kd: 6.6 nM
Response: 0.12
koff: 0.00078 s⁻¹
kon: 120000 M⁻¹ s⁻¹

B16: 75110_08F20A (antibody, V domains shown)
VH: QVQLQESGPGLVKPSETLSLTCSVSGGSISTYYWSWIRQPAGKGLEWIGRICTTENTNYNPSLKSRVTMSIDSSKNQFSLKLSSVTAADTAVYYCARDLERLNYYGMDVWGQGATVTVSS
VL: B1 VL with K42I, N45K, A50D, I83F, A85T
notes: as for B1
Kd: 8.4 nM
Response: 0.22
koff: 0.0014 s⁻¹
kon: 170000 M⁻¹ s⁻¹

B17: 75110_08G08A (antibody, V domains shown)
VH: B16 VH
VL: B1 VL with K31N, K42I, N45K, A50D, A85T
notes: as for B1
Kd: 20 nM
Response: 0.15
koff: 0.0035 s⁻¹
kon: 180000 M⁻¹ s⁻¹

B18: 75110_10K21A (antibody, V domains shown)
VH: EVQLVESGGGLVQPGGSLRLSCAASGFTFSSYWMTWVRQAPGKGLEWVANIKQDGSEKYYVDSVKGRFTISRDNAKNSLYLQMNSLRAEDTAVYYCVRDRYDALDIWGQGTMVTVSS
VL: B12 VL with G34N, R65S, A72T, P80A, L90K, R103K
notes: as for B1
Kd: 3.1 nM
Response: 0.2
koff: 0.00049 s⁻¹
kon: 160000 M⁻¹ s⁻¹
